Results on one molecule are retold here after patent US20240034816A1 (Sanofi, published 2024).

Test [1] addresses T1, human CD16b (human FcgRIIIB) (human, UniProt O75015 17-200, limits assumed).
T1 construct: also called HuFcyRIIIb
Put plainly: SPR, fit Steady State Affinity, Exp No 3.

In test [2] the target is T2, human CD32b (human FcγRIIB) (human, UniProt P31994 43-217, limits assumed).
T2 construct: also called HuFcyRIIb
T2 sequence (looked up): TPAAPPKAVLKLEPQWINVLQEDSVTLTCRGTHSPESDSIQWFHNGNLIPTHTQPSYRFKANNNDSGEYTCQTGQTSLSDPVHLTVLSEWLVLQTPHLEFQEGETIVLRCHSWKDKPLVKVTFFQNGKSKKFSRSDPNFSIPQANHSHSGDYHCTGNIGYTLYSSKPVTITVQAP
Put plainly: SPR, fit Steady State Affinity, Exp No 3.

Test [3] has as its target T3, cynomolgus CD32a (cynomolgus).
T3 construct: also called CyFcyRIIa
Put plainly: SPR, fit Steady State Affinity, Exp No 3.

Test [4] has as its target T4, human CD32a (human FcγRIIA) (human, UniProt P12318 34-217, limits assumed).
T4 construct: also called HuFcyRIIa
T4 sequence (looked up): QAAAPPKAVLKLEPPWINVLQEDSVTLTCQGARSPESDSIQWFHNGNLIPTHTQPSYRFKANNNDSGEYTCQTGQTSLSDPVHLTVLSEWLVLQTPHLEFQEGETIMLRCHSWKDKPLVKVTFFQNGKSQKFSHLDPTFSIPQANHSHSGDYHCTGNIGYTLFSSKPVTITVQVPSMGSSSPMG
Put plainly: SPR, fit Steady State Affinity, Exp No 3.

Test [5] deals with T5, cynomolgus CD32b (cynomolgus).
T5 construct: also called CyFcyRIIb
Nature of the test: SPR, fit Steady State Affinity, Exp No 3.

The target of test [6] is T1, human CD16b (human FcgRIIIB). Nature of the test: SPR, fit Steady State Affinity, Exp No 1.
The target in test [7] is T2, human CD32b (human FcγRIIB). Nature of the test: SPR, fit Steady State Affinity, Exp No 1.
For test [8], the target named is T3, cynomolgus CD32a. Put plainly: SPR, fit Steady State Affinity, Exp No 1.
Test [9] concerns the target T4, human CD32a (human FcγRIIA). Put plainly: SPR, fit Steady State Affinity, Exp No 1.
The target in test [10] is T5, cynomolgus CD32b. Nature of the test: SPR, fit Steady State Affinity, Exp No 1.
Test [11] addresses T6, human BCMA on RPMI 8226 multiple myeloma cells (human, UniProt Q02223 1-184).
T6 construct: whole, on cells; also called BCMA on RPMI cells
T6 sequence (looked up): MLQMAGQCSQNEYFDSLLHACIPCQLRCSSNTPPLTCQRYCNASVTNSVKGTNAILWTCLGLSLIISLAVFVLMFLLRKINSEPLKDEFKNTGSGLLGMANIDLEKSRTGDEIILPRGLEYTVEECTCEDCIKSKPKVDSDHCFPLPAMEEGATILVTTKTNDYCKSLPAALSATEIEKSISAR
Put plainly: flow cytometry titration on RPMI 8226 cells, detection with goat anti-human IgG Fcγ-PE; representative titration. The procedure:
After staining, cells were resuspended in BD Cellfix and analyzed by flow cytometry. Parameters were recorded and analysed with FlowJo software. Staining EC50 values were calculated with GraphPad prism using 4 parameter logistics non-linear regression model.

The target in another test is T7, human CD64 (human FcγRI) (human, UniProt P12314 16-292, limits assumed).
T7 construct: also called HuFcyRI
T7 sequence (P12314 16-292 limits assumed): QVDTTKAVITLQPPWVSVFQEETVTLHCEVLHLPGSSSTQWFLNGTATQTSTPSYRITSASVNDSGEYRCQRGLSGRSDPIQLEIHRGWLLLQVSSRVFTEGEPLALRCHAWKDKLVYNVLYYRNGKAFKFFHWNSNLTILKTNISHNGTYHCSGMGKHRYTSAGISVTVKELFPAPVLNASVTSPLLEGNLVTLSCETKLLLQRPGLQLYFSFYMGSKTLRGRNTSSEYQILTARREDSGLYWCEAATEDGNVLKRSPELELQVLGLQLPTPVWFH
Nature of the test: SPR, fit 1:1 Binding, mean of 3 experiments.

Another test has as its target T8, cyno BCMA (PPB-17990) (cynomolgus, UniProt A0A2K5UD97 1-53).
T8 construct: also called cynomolgus BCMA
Nature of the test: SPR (Biacore 8K), NKCE captured by anti-human Fc, antigen as analyte, 1:1 model; mean of 3 experiments. The procedure: (§1) Measurements were performed in multicycle kinetics experiments for each antibody using a Biacore 8K instrument. In each multicycle experiment the antibodies were captured via an anti-hum a Fc antibody immobilized on a series S CM5 sensor chip (human antibody capture kit, Cytiva, Uppsala, Catalog No. BR1008-39).
(§2) The antigens, diluted as described above (concentration range 0.1 nM to 50 nM), were injected at a flow rate of 60 μL/min for 240 sec followed by a dissociation phase of 400 sec. All analyte concentrations were run in duplicate together with multiple buffer blanks for double referencing. Regeneration of the capture surface was performed with regeneration solution (3 mol/L MgCl2) for 60 sec at 30 μL/min. Binding kinetics data were evaluated with the Biacore 8K Evaluation Software version 1.1.1.7442 using a 1:1 binding model with mass transport limitation.

The target of test [12] is T9, recombinant human NKp46 extracellular domain (Gln22-Asn255) with C-terminal 6xHis tag (human, UniProt O76036 22-255).
T9 construct: range 22-255; also called huNKp46
T9 sequence (O76036 other isoform, or with tags, fused parts or gaps limits assumed): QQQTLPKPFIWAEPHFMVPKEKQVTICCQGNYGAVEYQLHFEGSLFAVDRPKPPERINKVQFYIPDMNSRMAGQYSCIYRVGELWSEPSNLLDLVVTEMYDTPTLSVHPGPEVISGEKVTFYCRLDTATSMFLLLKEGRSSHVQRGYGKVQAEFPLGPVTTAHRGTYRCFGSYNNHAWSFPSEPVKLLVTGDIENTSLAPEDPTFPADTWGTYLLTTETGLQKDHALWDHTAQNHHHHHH
The description is as above. How it is done:
as §1, §2

Another test has as its target recombinant human BCMA (human, UniProt Q02223 1-54). Described as above. How it is done: as §1, §2
Test [13] has as its target T10, human CD16a (human FcγRIIIA), V isoform (human, UniProt P08637 17-208).
T10 construct: also called HuFcyRIIIaV; CD16a (V176)
Nature of the test: SPR, fit Two State Reaction, Exp No 2.

The target in a further test is T11, cynomolgus CD16 (cynomolgus, UniProt Q8SPW2 17-208).
T11 construct: also called CyFcyRIII
T11 sequence (Q8SPW2 17-208): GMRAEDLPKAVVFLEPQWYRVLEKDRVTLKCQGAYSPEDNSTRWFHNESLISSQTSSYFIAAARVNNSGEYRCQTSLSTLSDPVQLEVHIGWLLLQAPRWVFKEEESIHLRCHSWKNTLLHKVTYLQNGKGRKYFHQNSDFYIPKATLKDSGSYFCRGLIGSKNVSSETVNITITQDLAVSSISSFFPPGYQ
Nature of the test: SPR, fit Two State Reaction, Exp No 2.

Test [14] deals with T1, human CD16b (human FcgRIIIB). Nature of the test: SPR, fit Steady State Affinity, Exp No 2.
Test [15] has as its target T2, human CD32b (human FcγRIIB). Nature of the test: SPR, fit Steady State Affinity, Exp No 2.
Test [16] addresses T4, human CD32a (human FcγRIIA). Nature of the test: SPR, fit Steady State Affinity, Exp No 2.

T1 sequence (O75015 17-200 limits assumed): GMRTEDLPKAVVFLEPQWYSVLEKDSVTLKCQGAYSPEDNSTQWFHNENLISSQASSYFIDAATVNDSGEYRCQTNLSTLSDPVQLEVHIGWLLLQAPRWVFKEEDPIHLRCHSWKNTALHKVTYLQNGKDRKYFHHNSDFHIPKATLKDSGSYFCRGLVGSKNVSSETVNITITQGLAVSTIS
T10 sequence (P08637 17-208 F176V limits assumed): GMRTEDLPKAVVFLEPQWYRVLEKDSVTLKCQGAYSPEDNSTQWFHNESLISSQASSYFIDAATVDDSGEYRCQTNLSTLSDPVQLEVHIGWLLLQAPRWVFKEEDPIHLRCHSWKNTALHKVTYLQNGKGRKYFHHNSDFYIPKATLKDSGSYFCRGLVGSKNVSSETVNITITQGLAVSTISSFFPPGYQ
T8 sequence (A0A2K5UD97 entry or part of it): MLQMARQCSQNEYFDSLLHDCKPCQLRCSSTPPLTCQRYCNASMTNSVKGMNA

B1: NKp46-BCMA_Fc-ADE-DSB NKCE (bispecific antibody, human IgG1, kappa)
light: QTVVTQEPSLTVSPGGTVTLTCASSTGTVTPSNYANWVQQKPGQAFRGLIGDNNSRPPGTPARFSASLLGGKAALTLSGVQPEDEAEYYCALWFGNQWVFGGGTKLTVLGGGGSGGGGSDIQMTQSPSSLSASVGDRVTITCRASQDISNYLNWYQQKPGKAPKLLIYYTSRLHSGVPSRFSGSGSGTDFTFTISSLQPEDIATYFCQQGNTRPWTFGGGTKVEIKGGGGSGGGGSRTVAAPSVFIFPPSDEQLKSGTASVVCLLNNFYPREAKVQWKVDNALQSGNSQESVTEQDSKDSTYSLSSTLTLSKADYEKHKVYACEVTHQGLSSPVTKSFNRGEC
heavy: QVQLVQSGAEVKKPGSSVKVSCKASGYTFSDYVINWVRQAPGQGLEWMGEIYPGSGTNYYNEKFKAKATITADKSTSTAYMELSSLRSEDTAVYYCARRGRYGLYAMDYWGQGTTVTVSSQVQLVESGGGVVQPGRSLRLSCAASGFTFSNFGMHWVRQAPGRGLEWVAVIWSDETNRYYADSVKGRFTVSRDNVKSTVYLQMNSLISEDTAVYYCARDQQYCSSDSCFTWFDPWGQGTLVTVSSASTKGPSVFPLAPSSKSTSGGTAALGCLVKDYFPEPVTVSWNSGALTSGVHTFPAVLQSSGLYSLSSVVTVPSSSLGTQTYICNVNHKPSNTKVDKKVEPKSCDKTHTCPPCPAPELLAGPDVFLFPPKPKDTLMISRTPEVTCVVVDVSHEDPEVKFNWYVDGVEVHNAKTKPCEEQYNSTYRCVSVLTVLHQDWLNGKEYKCKVSNKALPAPEEKTISKAKGQPREPQVYTLPPCRDELTKNQVSLWCLVKGFYPSDIAVEWESNGQPENNYKTTPPVLDSDGSFFLYSKLTVDKSRWQQGNVFSCSVMHEALHNHYTQKSLSLSPG
chain: DKTHTCPPCPAPELLAGPDVFLFPPKPKDTLMISRTPEVTCVVVDVSHEDPEVKFNWYVDGVEVHNAKTKPCEEQYNSTYRCVSVLTVLHQDWLNGKEYKCKVSNKALPAPEEKTISKAKGQPREPQVCTLPPSRDELTKNQVSLSCAVKGFYPSDIAVEWESNGQPENNYKTTPPVLDSDGSFFLVSKLTVDKSRWQQGNVFSCSVMHEALHNRFTQKSLSLSPG
Turning to B1, the Kd in test [1] was determined as 2330 nM; in test [2], 1420 nM; with cynomolgus CD32a [3] it was 1700 nM; in test [4], 963 nM; with cynomolgus CD32b [5], 1300 nM; in test [6] it was 1260 nM. Also, the dissociation constant Kd was 1350 nM in test [7]; 1350 nM with cynomolgus CD32a [8]; 415 nM in test [9]; 884 nM with cynomolgus CD32b [10]; 0.32 nM with human CD64 (human FcγRI); 0.3 nM with cyno BCMA (PPB-17990). Besides, the Kd in test [12] was found to be 12.5 nM; in the test with recombinant human BCMA, 0.2 nM; in test [13] it was 12.1 nM; with cynomolgus CD16, 9.3 nM; in test [14] it was 1690 nM; in [15] it was 1060 nM. The molecule further gave a Kd in test [16] of 656 nM. The “EC50 (read off the curve)” value in [11] was roughly 1 µg/mL.
